Assay results: IntAct's records for PubMed 19198587

B1: Far upstream element-binding protein 2 (Homo sapiens), Q92945 (parent)
chain: MSDYSTGGPPPGPPPPAGGGGGAGGAGGGPPPGPPGAGDRGGGGPGGGGPGGGSAGGPSQPPGGGGPGIRKDAFADAVQRARQIAAKIGGDAATTVNNSTPDFGFGGQKRQLEDGDQPESKKLASQGDSISSQLGPIHPPPRTSMTEEYRVPDGMVGLIIGRGGEQINKIQQDSGCKVQISPDSGGLPERSVSLTGAPESVQKAKMMLDDIVSRGRGGPPGQFHDNANGGQNGTVQEIMIPAGKAGLVIGKGGETIKQLQERAGVKMILIQDGSQNTNVDKPLRIIGDPYKVQQACEMVMDILRERDQGGFGDRNEYGSRIGGGIDVPVPRHSVGVVIGRSGEMIKKIQNDAGVRIQFKQDDGTGPEKIAHIMGPPDRCEHAARIINDLLQSLRSGPPGPPGGPGMPPGGRGRGRGQGNWGPPGGEMTFSIPTHKCGLVIGRGGENVKAINQQTGAFVEISRQLPPNGDPNFKLFIIRGSPQQIDHAKQLIEEKIEGPLCPVGPGPGGPGPAGPMGPFNPGPFNQGPPGAPPHAGGPPPHQYPPQGWGNTYPQWQPPAPHDPSKAAAAAADPNAAWAAYYSHYYQQPPGPVPGPAPAPAAPPAQGEPPQPPPTGQSDYTKAWEEYYKKIGQQPQQPGAPPQQDYTKAWEEYYKKQAQVATGGGPGAPPGSQPDYSAAWAEYYRQQAAYYGQTPGPGGPQPPPTQQGQQQAQ

Variants of: B1
Settings: with akt1_human AKT1, P31749
Chain of akt1_human AKT1, P31749 (P31749 whole entry): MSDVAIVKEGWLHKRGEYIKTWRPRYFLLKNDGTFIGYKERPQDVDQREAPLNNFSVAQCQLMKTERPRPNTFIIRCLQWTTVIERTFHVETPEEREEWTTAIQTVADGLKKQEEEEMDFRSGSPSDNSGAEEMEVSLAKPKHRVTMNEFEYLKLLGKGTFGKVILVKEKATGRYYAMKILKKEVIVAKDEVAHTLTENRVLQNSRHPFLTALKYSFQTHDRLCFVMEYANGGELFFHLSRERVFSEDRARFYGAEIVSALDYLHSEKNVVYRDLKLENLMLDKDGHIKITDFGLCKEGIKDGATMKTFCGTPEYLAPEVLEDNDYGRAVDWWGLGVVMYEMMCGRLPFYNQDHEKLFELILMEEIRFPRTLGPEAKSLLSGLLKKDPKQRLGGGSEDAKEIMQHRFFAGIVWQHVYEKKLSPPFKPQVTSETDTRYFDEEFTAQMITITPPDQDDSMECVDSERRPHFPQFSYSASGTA

effect of a mutation on the interaction	Variant
disrupting interaction	S193A
